# B1: RbMPO-LEGGEAEA-GOx chimera (Rhodopirellula baltica myeloperoxidase, SEQ ID NO: 10; linker SEQ ID NO: 4; Penicillium amagasakiens glucose oxidase, SEQ ID NO: … (protein)
# chain: MLFWSKRTRKHPGRKRRRLRSEQLESRQLLAADFGGYRHNIYDAEDVNDDGRVSAIDALLVINAMTSETSRDENVFTDVNGDGRRSALDALRVINRIERGDVFPIDTSGDEDLNTLLPEMPSEVRSIDGSGNNPNDHLWGSVGQRLIRMAPAAYGDGISTLAGANRPSAREVSNVLSAMNTSQVLNDRGLSAFVYVWGQFIDHDLGLTESDEHGEAIDISVPEGDLWFDPMGSGEAVIPMTRTPIADGTGTSVGNPAQQFNQITAFIDGSMVYGSDAATAERLRTFAGGRLAISDNGLLPMDESGMVIAGDVRASENVGLTAIQTLFVREHNRLADEIFAADPEATDEEIYQRARLVVASLIQSITYNEFLPALLGQRAMDSYRGYDASVNPGIANEFSTAAFRLGHSTLRDEVGFMSNDGRESKDEMELKDAFFHASMLEETGIDSLLKFDASVQAQEIDLAVVDSLRNFLFGPPGAGGLDLVAMNIQRGRDHGLSDYNTTRQAYGLDRVETFDQITGDVELQQKLASLYGTVDNIDLWVGLMAEDHQHDASVGELTGLIIADQFQRTRDGDRFFYKNVLTDSEVESIERSTLADLIERNTSVDGLQENVFFMQVELRGRVILASSIPPNTMPSEVREEEIRGVSGMAIELIDASGKLVDSTVSDQHGNYRFRALSETGDYQVRLSESGEAMDVLVAHGAERIRGLDFIVLALEGGEAEAYLPAQQIDVQSSLLSDPSKVAGKTYDYIIAGGGLTGLTVAAKLTENPKIKVLVIEKGFYESNDGAIIEDPNAYGQIFGTTVDQNYLTVPLINNRTNNIKAGKGLGGSTLINGDSWTRPDKVQIDSWEKVFGMEGWNWDNMFEYMKKAEAARTPTAAQLAAGHSFNATCHGTNGTVQSGARDNGQPWSPIMKALMNTVSALGVPVQQDFLCGHPRGVSMIMNNLDENQVRVDAARAWLLPNYQRSNLEILTGQMVGKVLFKQTASGPQAVGVNFGTNKAVNFDVFAKHEVLLAAGSAISPLILEYSGIGLKSVLDQANVTQLLDLPVGINMQDQTTTTVSSRASSAGAGQGQAVFFANFTETFGDYAPQARDLLNTKLDQWAEETVARGGFHNVTALKVQYENYRNWLLDEDVAFAELFMDTEGKINFDLWDLIPFTRGSVHILSSDPYLWQFANDPKFFLNEFDLLGQAAASKLARDLTSQGAMKEYFAGETLPGYNLVQNATLSQWSDYVLQNFRPNWHAVSSCSMMSRELGGVVDATAKVYGTQGLRVIDGSIPPTQVSSHVMTIFYGMALKVADAILDDYAKSA
# notes: 6His (in the pET21a vector behind the XhoI site); made in house; host or cells: E. coli BL21Star (DE3)
# B2: RbMPO-GGGGGGGG-GOx chimera (Rhodopirellula baltica myeloperoxidase, SEQ ID NO: 10; linker SEQ ID NO: 9; Penicillium amagasakiens glucose oxidase, SEQ ID NO: … (protein)
# chain: MLFWSKRTRKHPGRKRRRLRSEQLESRQLLAADFGGYRHNIYDAEDVNDDGRVSAIDALLVINAMTSETSRDENVFTDVNGDGRRSALDALRVINRIERGDVFPIDTSGDEDLNTLLPEMPSEVRSIDGSGNNPNDHLWGSVGQRLIRMAPAAYGDGISTLAGANRPSAREVSNVLSAMNTSQVLNDRGLSAFVYVWGQFIDHDLGLTESDEHGEAIDISVPEGDLWFDPMGSGEAVIPMTRTPIADGTGTSVGNPAQQFNQITAFIDGSMVYGSDAATAERLRTFAGGRLAISDNGLLPMDESGMVIAGDVRASENVGLTAIQTLFVREHNRLADEIFAADPEATDEEIYQRARLVVASLIQSITYNEFLPALLGQRAMDSYRGYDASVNPGIANEFSTAAFRLGHSTLRDEVGFMSNDGRESKDEMELKDAFFHASMLEETGIDSLLKFDASVQAQEIDLAVVDSLRNFLFGPPGAGGLDLVAMNIQRGRDHGLSDYNTTRQAYGLDRVETFDQITGDVELQQKLASLYGTVDNIDLWVGLMAEDHQHDASVGELTGLIIADQFQRTRDGDRFFYKNVLTDSEVESIERSTLADLIERNTSVDGLQENVFFMQVELRGRVILASSIPPNTMPSEVREEEIRGVSGMAIELIDASGKLVDSTVSDQHGNYRFRALSETGDYQVRLSESGEAMDVLVAHGAERIRGLDFIVLAGGGGGGGGYLPAQQIDVQSSLLSDPSKVAGKTYDYIIAGGGLTGLTVAAKLTENPKIKVLVIEKGFYESNDGAIIEDPNAYGQIFGTTVDQNYLTVPLINNRTNNIKAGKGLGGSTLINGDSWTRPDKVQIDSWEKVFGMEGWNWDNMFEYMKKAEAARTPTAAQLAAGHSFNATCHGTNGTVQSGARDNGQPWSPIMKALMNTVSALGVPVQQDFLCGHPRGVSMIMNNLDENQVRVDAARAWLLPNYQRSNLEILTGQMVGKVLFKQTASGPQAVGVNFGTNKAVNFDVFAKHEVLLAAGSAISPLILEYSGIGLKSVLDQANVTQLLDLPVGINMQDQTTTTVSSRASSAGAGQGQAVFFANFTETFGDYAPQARDLLNTKLDQWAEETVARGGFHNVTALKVQYENYRNWLLDEDVAFAELFMDTEGKINFDLWDLIPFTRGSVHILSSDPYLWQFANDPKFFLNEFDLLGQAAASKLARDLTSQGAMKEYFAGETLPGYNLVQNATLSQWSDYVLQNFRPNWHAVSSCSMMSRELGGVVDATAKVYGTQGLRVIDGSIPPTQVSSHVMTIFYGMALKVADAILDDYAKSA
# notes: as for B1
# B3: RbMPO-LEKRPEAEA-GOx chimera (Rhodopirellula baltica myeloperoxidase, SEQ ID NO: 10; linker SEQ ID NO: 8; Penicillium amagasakiens glucose oxidase, SEQ ID NO: … (protein)
# chain: MLFWSKRTRKHPGRKRRRLRSEQLESRQLLAADFGGYRHNIYDAEDVNDDGRVSAIDALLVINAMTSETSRDENVFTDVNGDGRRSALDALRVINRIERGDVFPIDTSGDEDLNTLLPEMPSEVRSIDGSGNNPNDHLWGSVGQRLIRMAPAAYGDGISTLAGANRPSAREVSNVLSAMNTSQVLNDRGLSAFVYVWGQFIDHDLGLTESDEHGEAIDISVPEGDLWFDPMGSGEAVIPMTRTPIADGTGTSVGNPAQQFNQITAFIDGSMVYGSDAATAERLRTFAGGRLAISDNGLLPMDESGMVIAGDVRASENVGLTAIQTLFVREHNRLADEIFAADPEATDEEIYQRARLVVASLIQSITYNEFLPALLGQRAMDSYRGYDASVNPGIANEFSTAAFRLGHSTLRDEVGFMSNDGRESKDEMELKDAFFHASMLEETGIDSLLKFDASVQAQEIDLAVVDSLRNFLFGPPGAGGLDLVAMNIQRGRDHGLSDYNTTRQAYGLDRVETFDQITGDVELQQKLASLYGTVDNIDLWVGLMAEDHQHDASVGELTGLIIADQFQRTRDGDRFFYKNVLTDSEVESIERSTLADLIERNTSVDGLQENVFFMQVELRGRVILASSIPPNTMPSEVREEEIRGVSGMAIELIDASGKLVDSTVSDQHGNYRFRALSETGDYQVRLSESGEAMDVLVAHGAERIRGLDFIVLALEKRPEAEAYLPAQQIDVQSSLLSDPSKVAGKTYDYIIAGGGLTGLTVAAKLTENPKIKVLVIEKGFYESNDGAIIEDPNAYGQIFGTTVDQNYLTVPLINNRTNNIKAGKGLGGSTLINGDSWTRPDKVQIDSWEKVFGMEGWNWDNMFEYMKKAEAARTPTAAQLAAGHSFNATCHGTNGTVQSGARDNGQPWSPIMKALMNTVSALGVPVQQDFLCGHPRGVSMIMNNLDENQVRVDAARAWLLPNYQRSNLEILTGQMVGKVLFKQTASGPQAVGVNFGTNKAVNFDVFAKHEVLLAAGSAISPLILEYSGIGLKSVLDQANVTQLLDLPVGINMQDQTTTTVSSRASSAGAGQGQAVFFANFTETFGDYAPQARDLLNTKLDQWAEETVARGGFHNVTALKVQYENYRNWLLDEDVAFAELFMDTEGKINFDLWDLIPFTRGSVHILSSDPYLWQFANDPKFFLNEFDLLGQAAASKLARDLTSQGAMKEYFAGETLPGYNLVQNATLSQWSDYVLQNFRPNWHAVSSCSMMSRELGGVVDATAKVYGTQGLRVIDGSIPPTQVSSHVMTIFYGMALKVADAILDDYAKSA
# notes: as for B1
# What was measured:
# Format in all cases: biochemical, Rhodopirellula baltica / Penicillium amagasakiens
# Details in all cases: fixed NaCl 20 mM, pH7.5, pH 7.5
# [1] = substrate: OC[C@H]1OC(O)[C@H](O)[C@@H](O)[C@@H]1O; test: Coupled active sites, HOCl production from glucose, APF assay (Table 9), linker LEGGEAEA
# Method: (§1) Each experiment was performed in triplicate.
# (§2) The activity of the two active sites was then assessed in conjunction to each other (FIG. 1).
# (§3) Briefly, the aim was to measure the production of HOCl from glucose and NaCl as respective substrates of the enzymes, using the APF probe. Two types of kinetics were performed: • i) kinetics at various concentrations of glucose and a fixed concentration of NaCl, and • ii) kinetics at various concentration of NaCl and a fixed concentration of glucose.
# [2] = substrate: OC[C@H]1OC(O)[C@H](O)[C@@H](O)[C@@H]1O; test: Coupled active sites, HOCl production from glucose, APF assay (Table 9), linker GGGGGGGG
# Method: as §1, §2, §3
# [3] = substrate: OC[C@H]1OC(O)[C@H](O)[C@@H](O)[C@@H]1O; test: Coupled active sites, HOCl production from glucose, APF assay (Table 9), linker LEKRPEAEA
# Method: as §1, §2, §3
protein,measurement,setting,value
B1,Km,[1]; other: dimer/monomer,629 ± 295 µM
same,kcat,[1]; other: dimer/monomer,0.000315 s⁻¹
same,kcat/Km,[1]; other: dimer/monomer,0.5 ± 0.259 M⁻¹ s⁻¹
same,Km,[1]; other: excluded,65600 ± 14200 µM
same,kcat,[1]; other: excluded,0.00056 s⁻¹
same,kcat/Km,[1]; other: excluded,0.00853 ± 0.00215 M⁻¹ s⁻¹
same,Km,[1]; other: monomer 1,8820 ± 4870 µM
same,kcat,[1]; other: monomer 1,0.00123 s⁻¹
same,kcat/Km,[1]; other: monomer 1,0.139 ± 0.095 M⁻¹ s⁻¹
same,Km,[1]; other: monomer 2,1380 ± 671 µM
same,kcat,[1]; other: monomer 2,0.00377 s⁻¹
same,kcat/Km,[1]; other: monomer 2,2.73 ± 1.5 M⁻¹ s⁻¹
B2,Km,[2]; other: dimer/monomer,2060 ± 1290 µM
same,kcat,[2]; other: dimer/monomer,0.00155 s⁻¹
same,kcat/Km,[2]; other: dimer/monomer,0.754 ± 0.545 M⁻¹ s⁻¹
same,Km,[2]; other: excluded,2760 ± 1060 µM
same,kcat,[2]; other: excluded,0.000102 s⁻¹
same,kcat/Km,[2]; other: excluded,0.037 ± 0.017 M⁻¹ s⁻¹
same,Km,[2]; other: monomer,6196 ± 951 µM
same,kcat,[2]; other: monomer,0.000512 s⁻¹
same,kcat/Km,[2]; other: monomer,0.083 ± 0.015 M⁻¹ s⁻¹
same,Km,[2]; other: trimer,3610 ± 2110 µM
same,kcat,[2]; other: trimer,0.000589 s⁻¹
same,kcat/Km,[2]; other: trimer,0.163 ± 0.129 M⁻¹ s⁻¹
B3,Km,[3]; other: dimer/monomer,2160 ± 1480 µM
same,kcat,[3]; other: dimer/monomer,0.000642 s⁻¹
same,kcat/Km,[3]; other: dimer/monomer,0.298 ± 0.235 M⁻¹ s⁻¹
same,Km,[3]; other: excluded,22600 ± 6500 µM
same,kcat,[3]; other: excluded,0.000365 s⁻¹
same,kcat/Km,[3]; other: excluded,0.016 ± 0.005 M⁻¹ s⁻¹
same,Km,[3]; other: trimer,1056 ± 496 µM
same,kcat,[3]; other: trimer,0.000156 s⁻¹
same,kcat/Km,[3]; other: trimer,0.148 ± 0.081 M⁻¹ s⁻¹

# Reference: patent US20260201347A1, “ARTIFICIAL BIFUNCTIONAL ENZYME COMPRISING A MYELOPEROXIDASE ACTIVITY AND A GLUCOSE OXIDASE ACTIVITY AND APPLICATIONS THEREOF” (UNIVERSITÉ DE BORDEAUX, priority 2022, published 2026)
